From PMC8081924 (The Journal of Biological Chemistry, 2021)
Values joined by “and” are separate entries in the source; they are usually repeats but may differ in a detail not shown here. Equal entries are not always repeated. Where two headings read alike, the source gives them in different places.

Key:
AUC [1] = target: the molecule itself; assay: AUC
O43175 = assay: AUC
[2] = target: the molecule itself
[3] = target: the molecule itself; assay: cell-based or functional assay
AUC [4] = target: the molecule itself; assay: AUC; remark: listed apart in the source
AUC [5] = target: the molecule itself; assay: AUC; remark: listed apart in the source
AUC [6] = target: the molecule itself; assay: AUC; remark: listed apart in the source

Row | Protein | stoichiometry N (AUC [4]) | stoichiometry N (AUC [6]) | further results
1 | sPHGDH (catalytic unit of human D-3-phosphoglycerate dehydrogenase, 1-307), wild type (domain or fragment, UniProt O43175 1-307, looked up) MAFANLRKVLISDSLDPCCRKILQDGGLQVVEKQNLSKEELIAELQDCEGLIVRSATKVTADVINAAEKLQVVGRAGTGVDNVDLEAATRKGILVMNTPNGNSLSAAELTCGMIMCLARQIPQATASMKDGKWERKKFMGTELNGKTLGILGLGRIGREVATRMQSFGMKTIGYDPIISPEVSASFGVQQLPLEEIWPLCDFITVHTPLLPSTTGLLNDNTFAQCKKGVRVVNCARGGIVDEGALLRALQSGQCAGAALDVFTEEPPRDRALVDHENVISCPHLGASTKEAQSRCGEEIAVQFVDMV | – | – | stoichiometry N (AUC [1]): 2; total concentration at which the dimer and monomer peak ratio is 1:1 (O43175): the 1:1 ratio at about 1 μM; Kd [2]: 580 nM
2 | sPHGDH R135A (domain or fragment, human, UniProt O43175 1-307, looked up) MAFANLRKVLISDSLDPCCRKILQDGGLQVVEKQNLSKEELIAELQDCEGLIVRSATKVTADVINAAEKLQVVGRAGTGVDNVDLEAATRKGILVMNTPNGNSLSAAELTCGMIMCLARQIPQATASMKDGKWEAKKFMGTELNGKTLGILGLGRIGREVATRMQSFGMKTIGYDPIISPEVSASFGVQQLPLEEIWPLCDFITVHTPLLPSTTGLLNDNTFAQCKKGVRVVNCARGGIVDEGALLRALQSGQCAGAALDVFTEEPPRDRALVDHENVISCPHLGASTKEAQSRCGEEIAVQFVDMV | 2 | – | enzyme activity of the sPHGDH mutant at 2.4 μM against WT [3]: ~80 % of WT
3 | sPHGDH R236E (domain or fragment, human, UniProt O43175 1-307, looked up) MAFANLRKVLISDSLDPCCRKILQDGGLQVVEKQNLSKEELIAELQDCEGLIVRSATKVTADVINAAEKLQVVGRAGTGVDNVDLEAATRKGILVMNTPNGNSLSAAELTCGMIMCLARQIPQATASMKDGKWERKKFMGTELNGKTLGILGLGRIGREVATRMQSFGMKTIGYDPIISPEVSASFGVQQLPLEEIWPLCDFITVHTPLLPSTTGLLNDNTFAQCKKGVRVVNCAEGGIVDEGALLRALQSGQCAGAALDVFTEEPPRDRALVDHENVISCPHLGASTKEAQSRCGEEIAVQFVDMV | 2 | – | –
4 | sPHGDH R135W (domain or fragment, human, UniProt O43175 1-307, looked up) MAFANLRKVLISDSLDPCCRKILQDGGLQVVEKQNLSKEELIAELQDCEGLIVRSATKVTADVINAAEKLQVVGRAGTGVDNVDLEAATRKGILVMNTPNGNSLSAAELTCGMIMCLARQIPQATASMKDGKWEWKKFMGTELNGKTLGILGLGRIGREVATRMQSFGMKTIGYDPIISPEVSASFGVQQLPLEEIWPLCDFITVHTPLLPSTTGLLNDNTFAQCKKGVRVVNCARGGIVDEGALLRALQSGQCAGAALDVFTEEPPRDRALVDHENVISCPHLGASTKEAQSRCGEEIAVQFVDMV | 2 | – | –
5 | full-length human D-3-phosphoglycerate dehydrogenase (PHGDH, 1-533), wild type (enzyme, UniProt O43175 1-533, looked up) MAFANLRKVLISDSLDPCCRKILQDGGLQVVEKQNLSKEELIAELQDCEGLIVRSATKVTADVINAAEKLQVVGRAGTGVDNVDLEAATRKGILVMNTPNGNSLSAAELTCGMIMCLARQIPQATASMKDGKWERKKFMGTELNGKTLGILGLGRIGREVATRMQSFGMKTIGYDPIISPEVSASFGVQQLPLEEIWPLCDFITVHTPLLPSTTGLLNDNTFAQCKKGVRVVNCARGGIVDEGALLRALQSGQCAGAALDVFTEEPPRDRALVDHENVISCPHLGASTKEAQSRCGEEIAVQFVDMVKGKSLTGVVNAQALTSAFSPHTKPWIGLAEALGTLMRAWAGSPKGTIQVITQGTSLKNAGNCLSPAVIVGLLKEASKQADVNLVNAKLLVKEAGLNVTTSHSPAAPGEQGFGECLLAVALAGAPYQAVGLVQGTTPVLQGLNGAVFRPEVPLRRDLPLLLFRTQTSDPAMLPTMIGLLAEAGVRLLSYQTSLVSDGETWHVMGISSLLPSLEAWKQHVTEAFQFHF | – | – | stoichiometry N (AUC [5]): 2 and 4
6 | full-length PHGDH I121A (enzyme, human, UniProt O43175 1-533, looked up) MAFANLRKVLISDSLDPCCRKILQDGGLQVVEKQNLSKEELIAELQDCEGLIVRSATKVTADVINAAEKLQVVGRAGTGVDNVDLEAATRKGILVMNTPNGNSLSAAELTCGMIMCLARQAPQATASMKDGKWERKKFMGTELNGKTLGILGLGRIGREVATRMQSFGMKTIGYDPIISPEVSASFGVQQLPLEEIWPLCDFITVHTPLLPSTTGLLNDNTFAQCKKGVRVVNCARGGIVDEGALLRALQSGQCAGAALDVFTEEPPRDRALVDHENVISCPHLGASTKEAQSRCGEEIAVQFVDMVKGKSLTGVVNAQALTSAFSPHTKPWIGLAEALGTLMRAWAGSPKGTIQVITQGTSLKNAGNCLSPAVIVGLLKEASKQADVNLVNAKLLVKEAGLNVTTSHSPAAPGEQGFGECLLAVALAGAPYQAVGLVQGTTPVLQGLNGAVFRPEVPLRRDLPLLLFRTQTSDPAMLPTMIGLLAEAGVRLLSYQTSLVSDGETWHVMGISSLLPSLEAWKQHVTEAFQFHF | – | 2 | –
7 | full-length PHGDH E108A (enzyme, human, UniProt O43175 1-533, looked up) MAFANLRKVLISDSLDPCCRKILQDGGLQVVEKQNLSKEELIAELQDCEGLIVRSATKVTADVINAAEKLQVVGRAGTGVDNVDLEAATRKGILVMNTPNGNSLSAAALTCGMIMCLARQIPQATASMKDGKWERKKFMGTELNGKTLGILGLGRIGREVATRMQSFGMKTIGYDPIISPEVSASFGVQQLPLEEIWPLCDFITVHTPLLPSTTGLLNDNTFAQCKKGVRVVNCARGGIVDEGALLRALQSGQCAGAALDVFTEEPPRDRALVDHENVISCPHLGASTKEAQSRCGEEIAVQFVDMVKGKSLTGVVNAQALTSAFSPHTKPWIGLAEALGTLMRAWAGSPKGTIQVITQGTSLKNAGNCLSPAVIVGLLKEASKQADVNLVNAKLLVKEAGLNVTTSHSPAAPGEQGFGECLLAVALAGAPYQAVGLVQGTTPVLQGLNGAVFRPEVPLRRDLPLLLFRTQTSDPAMLPTMIGLLAEAGVRLLSYQTSLVSDGETWHVMGISSLLPSLEAWKQHVTEAFQFHF | – | 2 | –
8 | full-length PHGDH G140R (enzyme, human, UniProt O43175 1-533, looked up) MAFANLRKVLISDSLDPCCRKILQDGGLQVVEKQNLSKEELIAELQDCEGLIVRSATKVTADVINAAEKLQVVGRAGTGVDNVDLEAATRKGILVMNTPNGNSLSAAELTCGMIMCLARQIPQATASMKDGKWERKKFMRTELNGKTLGILGLGRIGREVATRMQSFGMKTIGYDPIISPEVSASFGVQQLPLEEIWPLCDFITVHTPLLPSTTGLLNDNTFAQCKKGVRVVNCARGGIVDEGALLRALQSGQCAGAALDVFTEEPPRDRALVDHENVISCPHLGASTKEAQSRCGEEIAVQFVDMVKGKSLTGVVNAQALTSAFSPHTKPWIGLAEALGTLMRAWAGSPKGTIQVITQGTSLKNAGNCLSPAVIVGLLKEASKQADVNLVNAKLLVKEAGLNVTTSHSPAAPGEQGFGECLLAVALAGAPYQAVGLVQGTTPVLQGLNGAVFRPEVPLRRDLPLLLFRTQTSDPAMLPTMIGLLAEAGVRLLSYQTSLVSDGETWHVMGISSLLPSLEAWKQHVTEAFQFHF | – | 2 | –
9 | full-length PHGDH R119A (enzyme, human, UniProt O43175 1-533, looked up) MAFANLRKVLISDSLDPCCRKILQDGGLQVVEKQNLSKEELIAELQDCEGLIVRSATKVTADVINAAEKLQVVGRAGTGVDNVDLEAATRKGILVMNTPNGNSLSAAELTCGMIMCLAAQIPQATASMKDGKWERKKFMGTELNGKTLGILGLGRIGREVATRMQSFGMKTIGYDPIISPEVSASFGVQQLPLEEIWPLCDFITVHTPLLPSTTGLLNDNTFAQCKKGVRVVNCARGGIVDEGALLRALQSGQCAGAALDVFTEEPPRDRALVDHENVISCPHLGASTKEAQSRCGEEIAVQFVDMVKGKSLTGVVNAQALTSAFSPHTKPWIGLAEALGTLMRAWAGSPKGTIQVITQGTSLKNAGNCLSPAVIVGLLKEASKQADVNLVNAKLLVKEAGLNVTTSHSPAAPGEQGFGECLLAVALAGAPYQAVGLVQGTTPVLQGLNGAVFRPEVPLRRDLPLLLFRTQTSDPAMLPTMIGLLAEAGVRLLSYQTSLVSDGETWHVMGISSLLPSLEAWKQHVTEAFQFHF | – | 2 | –
